Experimental data from patent US20190367619A1 (ARGENX, published 2019).
Residue numbers refer to the chain shown, from its start. Where two headings read alike, the source gives them in different places.

T1: cynomolgus galectin-10-His, YRT isoform (cynomolgus)
T1 sequence: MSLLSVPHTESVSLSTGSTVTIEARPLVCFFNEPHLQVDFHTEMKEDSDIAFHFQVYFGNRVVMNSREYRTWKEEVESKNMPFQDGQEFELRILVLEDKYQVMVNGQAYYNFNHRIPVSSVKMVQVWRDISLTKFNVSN

T2: recombinant human galectin-10, TEV-cleaved (human, UniProt Q05315 1-142)
T2 sequence: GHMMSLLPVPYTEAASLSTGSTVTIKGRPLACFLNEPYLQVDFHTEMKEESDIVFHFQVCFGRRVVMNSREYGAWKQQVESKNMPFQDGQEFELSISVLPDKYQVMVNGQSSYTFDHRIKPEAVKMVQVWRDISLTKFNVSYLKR

T3: cynomolgus galectin-10-His, WGS isoform (cynomolgus)
T3 construct: also called cynoGal10-WGS; not shown: His tag
T3 chain: T1 sequence with E23K, A24G, F31L, Y69F, R70K, T71I, R92S

T4: human galectin-10-His (human)
T4 construct: The last M of the tag may be Met1 of galectin-10; also called humanGal10-His; hGal10
T4 chain: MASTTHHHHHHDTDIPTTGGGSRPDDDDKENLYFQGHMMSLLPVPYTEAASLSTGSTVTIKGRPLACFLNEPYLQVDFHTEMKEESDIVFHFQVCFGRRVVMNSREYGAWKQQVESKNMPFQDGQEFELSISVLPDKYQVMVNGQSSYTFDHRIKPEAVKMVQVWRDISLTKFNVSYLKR

T5: human galectin-10-His (recombinant human galectin-10 with TEV-cleavable N-terminal His-tag) (human)
T5 construct: SEC-MALLS: dimer in solution; also called Gal10-His; humanGal10-His
T5 chain: T4 chain

T6: TEV-cleaved wild-type recombinant human galectin-10 (soluble, in Fab complexes, or as recombinant galectin-10 … (human, UniProt Q05315 1-142))
T6 sequence: T2 sequence

B1: 1D11 mouse IgG1 (antibody, V domains shown)
VH: QVQLVESGGGLVQPGGSLRLSCAASGFTFDDYAMSWVRQAPGKGLEWVSGISWNGGSTYYAESMKGRFTISRDNAKNTLYLQMNSLKSEDTAVYYCAKDRNLGYRLGYPYDYWGQGTQVTVSS
VL: QSVLTQPPSVSGSPGETVTISCAGTSSDVGYGNYVSWYQQLPGMAPRLLIYEVNKRASGITDRFSGSKSGNTASLTISGLQSEDEGDYYCASYRSSNNAVFGGGTHLTVL
B2: 7B07 mouse IgG1 (antibody, V domains shown)
VH: QVQLVESGGGLVQPGGSLRLSCAASGFTFRSYDMSWVRQAPGKGPEWVSAIKNGGGITYYADSVKGRFTISRDNAKNTLYLQMNSLKPEDTAVYYCATTHGIGTLGFGSWGQGTQVTVSS
VL: SYELTQSASVSVALTQTAKITCDGNNIGSKSAQWYQQKPGQAPALVIYADEYRPEGIPERFSGSNSGNTATLIISGAQAEDEADYYCQVWDGSAAVFGRGTHLTVL
notes: VH and VL cloned in frame with mouse IgG1 constant domains; also called 7B07 mIgG1
B3: 1C09 mouse IgG1 (antibody, V domains shown)
VH: QVQLVESGPGLVKPSQTLSLTCTVSGGSITTNSYYWSWIRQPPGKGLEWMGAIAYSGSTYYSPSLKSRTSISRDTSKNQFTLHLSSVTPEDTAVYYCARRPNWYRALDAWGQGTLVTVSS
VL: NFMLTQPSAVSVSLGQTARITCQGANLGRYYGIWYQQKPGQAPVQVIYGDSNRPSGIPERFSGSSSGGTATLTISGAQAEDEADYYCQSYESSTSPVFGGGTHLTVL
notes: VH on mouse IgG1 heavy chain constant domains (CH1-CH2-CH3), VL on mouse lambda light chain constant domain; also called 1C09 mIgG1
B4: 4E08 mouse IgG1 (antibody, V domains shown)
VH: QVQRQESGPGLVKPSQTLSLTCTVSGGSITTSYYAWSWIRQPPGKGLEWMGVIASDGSTYYSPSLKSRTSISRDTSKNQFSLQLSSVTPEDTAVYYCALYIRGSSWSGWSAYDYWGQGTQVTVSS
VL: QPVLNQPSAVSVSLGQTARITCQGGNFGYYYGSWYQQKPGQAPVLVIYKDSERPSGIPERFSGSSSGGTATLTISRAQAEDEADYYCQSADSSDNPVFGGGTHLTVL
notes: VH on mouse IgG1 heavy chain constant domains (CH1-CH2-CH3), VL on mouse lambda light chain constant domain; also called 4E8; 4E08 mIgG1

Experiments:
[1] = molecular target: TEV-cleaved wild-type recombinant human galectin-10 (soluble, in Fab complexes, or as recombinant galectin-10 crystals / CLCs) (human) (UniProt Q05315); assay: cell-based or functional assay
[2] = molecular target: T1, cynomolgus galectin-10-His, YRT isoform (cynomolgus); assay: ELISA, coated antigen 0.5 ug/mL
[3] = molecular target: T2, recombinant human galectin-10, …; assay: cell-based or functional assay
[4] = molecular target: T3, cynomolgus galectin-10-His, WGS isoform; assay: SPR Biacore T3000, mouse IgG1 captured
human galectin-10-His [5] = molecular target: T4, human galectin-10-His; assay: SPR Biacore T3000, mouse IgG1 captured
[6] = molecular target: T3, cynomolgus galectin-10-His, WGS isoform; assay: ELISA, coated antigen 0.5 ug/mL
human galectin-10-His [7] = molecular target: T4, human galectin-10-His; assay: ELISA, coated antigen 0.5 ug/mL
[8] = molecular target: T2, recombinant human galectin-10, …; assay: cell-based or functional assay; remark: listed apart in the source
[9] = molecular target: T5, human galectin-10-His (recombinant …); assay: BLI tandem on galectin-10-His; competitor: saturating 6F06 mIgG1 (10 ug/mL)
Procedure, shortened: (§1)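 Read-out is the BLI wavelength shift (nm) from the competitor antibody, measured after the captured antigen has already been saturated by another antibody. Absence of shift means both antibodies share the binding site.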

[10] = molecular target: T6, TEV-cleaved wild-type recombinant human …; assay: cell-based or functional assay
[11] = molecular target: T5, human galectin-10-His (recombinant …); assay: BLI tandem on galectin-10-His; competitor: saturating 2C07 mIgG1 (10 ug/mL)
Procedure, shortened: as §1

[12] = molecular target: T5, human galectin-10-His (recombinant …); assay: SPR Biacore T3000, mouse IgG1 captured by anti-mouse Fc, galectin-10-His as analyte
Procedure, shortened: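 Polyclonal anti-mouse Fc on a CM5 chip (8000 RU) captured each mouse IgG1 (1.5 μg/mL) to around 150 RU. Galectin-10-His was then injected as a 1:2 serial dilution from 5 μg/mL in HBS-EP pH7.4. After blank subtraction, kd/KD and Rmax came from a simultaneous ka/kd fit with mass transfer and local Rmax.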

[13] = molecular target: T6, TEV-cleaved wild-type recombinant human …; assay: cell-based or functional assay; remark: listed apart in the source
[14] = molecular target: T5, human galectin-10-His (recombinant …); assay: BLI tandem on galectin-10-His; competitor: saturating 4E08 mIgG1 (10 ug/mL)
Procedure, shortened: as §1

[15] = molecular target: T5, human galectin-10-His (recombinant …); assay: ELISA, mouse IgG1 on coated galectin-10-His (0.2 ug/mL)
Procedure, shortened: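 Serial dilutions of each antibody (from 100 nM, 1/4 steps, 12 points) were incubated on plates coated overnight with the antigen. Bound IgG1 detected with anti-mouse Fc-HRP, absorbance at 450 nm (reference 620 nm). EC50 from four-parameter variable-slope non-linear regression of OD values.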

[16] = molecular target: T5, human galectin-10-His (recombinant …); assay: BLI tandem on galectin-10-His; competitor: saturating 6E10 mIgG1 (10 ug/mL)
Procedure, shortened: as §1

[17] = molecular target: T5, human galectin-10-His (recombinant …); assay: BLI tandem on galectin-10-His; isotype control as saturating antibody (10 ug/mL)
Procedure, shortened: as §1

[18] = molecular target: T5, human galectin-10-His (recombinant …); assay: BLI tandem on galectin-10-His; competitor: saturating 1D11 mIgG1 (10 ug/mL)
Procedure, shortened: as §1

[19] = molecular target: T5, human galectin-10-His (recombinant …); assay: BLI tandem on galectin-10-His; competitor: saturating 1C09 mIgG1 (10 ug/mL)
Procedure, shortened: as §1

[20] = molecular target: T5, human galectin-10-His (recombinant …); assay: BLI tandem on galectin-10-His; competitor: saturating 6A08 mIgG1 (10 ug/mL)
Procedure, shortened: as §1

[21] = molecular target: T5, human galectin-10-His (recombinant …); assay: BLI tandem on galectin-10-His; competitor: saturating 2F09 mIgG1 (10 ug/mL)
Procedure, shortened: as §1

[22] = molecular target: T5, human galectin-10-His (recombinant …); assay: Biacore capture approach (summary table), mouse IgG1
Method: The binding capacity of the mouse IgG1 antibodies to galectin-10 was analyzed on Biacore T3000. For this purpose, a capture approach was set up. A CM5 Chip was coated with polyclonal anti-mouse Fc at 8000 RU, then a fixed concentration of the mouse IgG1 antibody panel (1.5 μg/mL), diluted in HBS-EP pH7.4, was captured to reach a binding signal around 150 RU. Finally, a serial dilution of galectin-10-His (serial dilution, 1 over 2 from 5 μg/mL) diluted in HBS-EP pH7.4 was injected. Raw data were analyzed via BIA evaluation software with a blank subtraction (4-3). The kd/KD and Rmax of each mAb to galectin-10-His was determined using the Fit Kinetics simultaneous ka/kd/Binding with mass transfer/Local Rmax on BIA evaluation software.

[23] = molecular target: T5, human galectin-10-His (recombinant …); assay: BLI tandem on galectin-10-His; competitor: saturating 6B06 mIgG1 (10 ug/mL)
Procedure, shortened: as §1

[24] = molecular target: T5, human galectin-10-His (recombinant …); assay: ELISA binding (summary table), mouse IgG1
[25] = molecular target: T6, TEV-cleaved wild-type recombinant human …; assay: cell-based or functional assay; remark: listed apart in the source
[26] = molecular target: T5, human galectin-10-His (recombinant …); assay: BLI tandem on galectin-10-His; competitor: saturating 6A05 mIgG1 (10 ug/mL)
Procedure, shortened: as §1

Molecule | OD values [2] | binding signal (nm) [9] | 100% Solubilization of CLC (Conc uM) [10] | binding signal (nm) [11] | Kd [12] | koff [12] | dissolution of in vitro grown Gal10 crystals (spinning disk confocal microscopy) [13] | binding signal (nm) [14] | Bmax [15] | EC50 [15] | binding signal (nm) [16] | binding signal (nm) [17] | binding signal (nm) [18] | binding signal (nm) [19] | binding signal (nm) [20] | binding signal (nm) [21] | Kd [22] | koff [22] | binding signal (nm) [23] | EC50 [24] | other results
mouse IgG1 isotype control (irrelevant mouse IgG1) (antibody) |  |  |  |  |  |  |  |  |  |  |  |  |  |  |  |  |  |  |  |  | CLC formation (crystallization robot assay) [1]: 100%
B1 | 0.03 OD |  |  |  |  |  |  |  |  |  |  |  |  |  |  |  |  |  |  |  | 
B2 | 0.01 OD |  |  |  |  |  |  |  |  |  |  |  |  |  |  |  |  |  |  |  | 50% crystal dissolution (min), 50 uM [3]: 31.8 min; 90% crystal dissolution (min), 50 uM [3]: 93 min; Kd [4]: 1.5 nM; koff [4]: 0.066 s⁻¹; kon [4]: 4.54e+07 M⁻¹ s⁻¹; Kd (human galectin-10-His [5]): 1.4 nM; koff (human galectin-10-His [5]): 0.0039 s⁻¹; kon (human galectin-10-His [5]): 2.78e+06 M⁻¹ s⁻¹; EC50 [6]: 0.06 nM; OD values [6]: 3.22 OD; EC50 (human galectin-10-His [7]): 0.57 nM; OD values (human galectin-10-His [7]): 0.4 OD; 50% dissolution (min) of CLCs, antibody 50 uM [8]: 13.2 min; 90% dissolution (min) of CLCs, antibody 50 uM [8]: 44.4 min
B3 |  | 0.04 nm | 10.5 µM | 0.03 nm | 0.5 nM | 0.00529 s⁻¹ | ≤ 90 min | 0.08 nm | 2.3 OD | 0.13 nM | 0.02 nm | 1.21 nm | 0.1 nm | 0.03 nm | 0.04 nm | 0.02 nm | 0.5 nM | 0.00529 s⁻¹ | 0.02 nm | 0.13 nM | 100% Inhibition of CLC formation (Conc uM) [25]: 0.82 µM; 100% Solubilization of CLC (Conc uM) [25]: 10.5 µM; binding signal (nm) [26]: 0.09 nm
B4 |  | 0.01 nm | > 10 µM | 0 nm | 0.8 nM | 0.00085 s⁻¹ | ≤ 90 min | -0.08 nm | 2.06 OD | 3.22 nM | -0.05 nm | 0.97 nm | 0.03 nm | -0.02 nm | -0.03 nm | 0.01 nm | 0.8 nM | 0.00085 s⁻¹ | 0 nm | 3.22 nM | 100% Inhibition of CLC formation (Conc uM) [25]: 1.11 µM; 100% Solubilization of CLC (Conc uM) [25]: > 10 µM; binding signal (nm) [26]: 0.03 nm
